This is an account of results in patent US20240317847A1 (Bayer, published 2024).

For orientation: Kd means the equilibrium constant for the complex coming apart. What is called IC50 is the midpoint of a concentration-inhibition curve.

Where a chain is given by its changes, count along the chain named.

Assay [1] has as its target T1, cynomolgus IL-11 (cynomolgus, UniProt P20808 22-199).
T1 construct: Invigate, lot #C290621-19; also called cIL11; cynoL-11
T1 sequence: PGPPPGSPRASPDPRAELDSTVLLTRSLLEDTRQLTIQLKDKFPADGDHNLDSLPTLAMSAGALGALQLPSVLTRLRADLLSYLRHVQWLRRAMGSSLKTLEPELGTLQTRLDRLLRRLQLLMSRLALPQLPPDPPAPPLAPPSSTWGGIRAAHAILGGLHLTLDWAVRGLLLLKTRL
Kind of assay: SPR 37 C, antibody captured, IL-11 as analyte.

The target of assay [2] is T2, rat IL-11 (rat, UniProt Q99MF5 22-199).
T2 construct: Invigate, e.g. lot #C301019-19; also called rIL11
T2 sequence: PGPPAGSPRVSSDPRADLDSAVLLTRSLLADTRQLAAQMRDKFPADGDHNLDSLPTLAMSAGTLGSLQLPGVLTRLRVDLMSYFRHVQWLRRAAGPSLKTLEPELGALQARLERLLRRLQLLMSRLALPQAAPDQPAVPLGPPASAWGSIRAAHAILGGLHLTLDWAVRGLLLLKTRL
Description: SPR 37 C, antibody captured, IL-11 as analyte.

The target in assay [3] is T3, murine IL-11 (mouse, UniProt P47873 22-199).
T3 construct: Invigate, e.g. lot #C210819-09; biotinylated where coated in the ELISA; also called mIL-11; mIL11
T3 sequence: T2 sequence with N50S, F84L, A94G, A137V, V138I
Kind of assay: SPR 37 C, antibody captured, IL-11 as analyte.

The target in assay [4] is T4, human IL-11 (human, UniProt P20809 22-199).
T4 construct: Invigate recombinant protein; biotinylated when immobilized in the Di-complex ELISA; also called hIL11; hIL-11
T4 sequence: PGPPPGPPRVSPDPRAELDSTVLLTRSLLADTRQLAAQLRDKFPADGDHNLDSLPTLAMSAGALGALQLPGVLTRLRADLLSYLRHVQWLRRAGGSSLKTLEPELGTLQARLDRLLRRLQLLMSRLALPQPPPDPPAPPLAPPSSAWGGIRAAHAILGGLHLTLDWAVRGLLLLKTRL
Kind of assay: Tri-complex ELISA, hIL-11 + mIL-11Ra-Fc + hgp130-Fc, inhibition of complex formation; Tri-complex ELISA (IL-11/IL-11Ra/gp130 formation), efficacy only 25%. How it is done: In a first step, 25 μl of goat anti human IgG (Sigma, #12136), diluted 1:1000 in coating buffer (Candor, #121125) was coated on the plate at 4° C. overnight. Next day, the plate was washed one time with 50 μl PBST and then blocked with 50 μl SmartBlock (Candor, #113125) for one hour at room temperature (RT). […] After three additional washes of the coated and blocked microtiter plate with PBS-T, 25 μl of each mixture were added and the assay plate was incubated for one hour at room temperature. After three additional washes, anti-mouse-gp130 biotinylated antibody (R&D, #BAF468) or anti-human gp130 biotinylated antibody (R&D, #BAF228), both 1:1000 in 10% SmartBlock PBS-T, was added and incubated for 1 hour at RT. […] Then, the fluorescence was measured with a plate reader at 535/595 nm. […] Efficacy was calculated as [(signal measured at lowest antibody concentration−signal measured at the highest antibody concentration)×100] divided by (signal measured at lowest antibody concentration−signal measured in the absence of antibody at an IL11 concentration of 8.2E-11 [M]).
IgG converted antibodies were subjected to the experimental assay procedure described in Example 19 and IC50 [M], respectively efficacy (%) were calculated accordingly.
(In general: In an ELISA, binding on a coated surface is turned into a signal by an enzyme label.)

B1: TPP-18068 (antibody, mouse IgG1)
heavy: EVQLLESGGGLVQPGGSLRLSCAASGFTFSSYGMHWVRQAPGKGLEWVSVISYDGSYKYYADSVKGRFTISRDNSKNTLYLQMNSLRAEDTAVYYCAAGVPDYWGQGTLVTVSSAKTTPPSVYPLAPGSAAQTNSMVTLGCLVKGYFPEPVTVTWNSGSLSSGVHTFPAVLQSDLYTLSSSVTVPSSTWPSETVTCNVAHPASSTKVDKKIVPRDCGCKPCICTVPEVSSVFIFPPKPKDVLTITLTPKVTCVVVDISKDDPEVQFSWFVDDVEVHTAQTQPREEQFNSTFRSVSELPIMHQDWLNGKEFKCRVNSAAFPAPIEKTISKTKGRPKAPQVYTIPPPKEQMAKDKVSLTCMITDFFPEDITVEWQWNGQPAENYKNTQPIMDTDGSYFVYSKLNVQKSNWEAGNTFTCSVLHEGLHNHHTEKSLSHSPGK
light: QSVLTQPPSASGTPGQRVTISCTGSSSNIGAGYDVHWYQQLPGTAPKLLIYSNNERPSGVPDRFSGSKSGTSASLAISGLRSEDEADYYCAAWDDSLNGPVFGGGTKLTVLGQPKSSPSVTLFPPSSEELETNKATLVCTITDFYPGVVTVDWKVDGTPVTQGMETTQPSKQSNNKYMASSYLTLTARAWERHSSYSCQVTHEGHTVEKSLSRADCS
notes: mIgG1, Lambda
For the molecule B1, the Kd was 5 nM in assay [1], 0.58 nM in assay [2] and 0.41 nM in assay [3].

B2: TPP-18087 (antibody, mouse IgG1, V domains shown)
VH: EVQLLESGGGLVQPGGSLRLSCAASGFTFSHYDMNWLRQAPGKGLEWVGVISYDGSNKFYADFVKGRFTISRDNSKNTLYLQMNSLRAEDTAVYYCARTPGSHFDYWGQGTLVTVSS
VL: QSVLTQPPSASGTPGQRVTISCSGSSSNIGNNAVNWYQQLPGTAPKLLIYYDDLLPSGVPDRFSGSKSGTSASLAISGLRSEDEADYYCSAWDDSLNGVVFGGGTKLTVLG
notes: mIgG1, Lambda
B2: in assay [4], the IC50 was determined as 1.5 nM.
